Data taken from the supplement of paper PMC9112550, “Optimization of the antimicrobial peptide Bac7 by deep mutational scanning” (BMC Biology, 2022).

Test system: Escherichia coli TOP10
Assay: shrunken log2 fold change of peptide-encoding DNA abundance (4.5 h post-induction vs induction); higher = less antimicrobial activity (less host growth inhibition)
Settings: time post-induction: 4.5 h; library: site-saturation at positions 5, 18, 19, 20
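Also: peptides expressed intracellularly from a pBAD plasmid library in pooled LB shake-flask culture, induced with 0.3% L-arabinose, DNA abundance read by NGS, three biological replicates, DESeq2 with apeglm shrinkage.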

Sequence | shrunken log2 fold change
RRIRTRPPRLPRPRPRPIDLPRP | -1.07
RRIRKRPPRLPRPRPRPIIPPRP | 0.152
RRIRSRPPRLPRPRPRPILMPRP | -0.172
RRIRARPPRLPRPRPRPALCPRP | 0.637
RRIRQRPPRLPRPRPRPKHIPRP | -0.456
RRIRARPPRLPRPRPRPQKCPRP | 0.0806
RRIRPRPPRLPRPRPRPAAFPRP | 0.207
RRIRWRPPRLPRPRPRPYNVPRP | -0.758
RRIRIRPPRLPRPRPRPATVPRP | -0.319
RRIRWRPPRLPRPRPRPHMTPRP | 0.118
RRIRQRPPRLPRPRPRPAPRPRP | 0.966
RRIRGRPPRLPRPRPRPKEYPRP | -0.102
RRIRMRPPRLPRPRPRPAITPRP | 0.0226
RRIRDRPPRLPRPRPRPVMAPRP | 0.774
RRIRWRPPRLPRPRPRPMASPRP | 0.659
RRIRMRPPRLPRPRPRPIHWPRP | -0.257
RRIRKRPPRLPRPRPRPWFHPRP | -0.838
RRIRFRPPRLPRPRPRPPFWPRP | 0.538
RRIRTRPPRLPRPRPRPCPQPRP | -0.312
RRIRERPPRLPRPRPRPYMEPRP | 0.0111
RRIRSRPPRLPRPRPRPLHSPRP | -0.0322
RRIRGRPPRLPRPRPRPPWRPRP | 1.07
RRIRHRPPRLPRPRPRPEYNPRP | -0.329
RRIRARPPRLPRPRPRPNHLPRP | -0.000432
RRIRNRPPRLPRPRPRPDKRPRP | -0.0491

Sequence | shrunken log2 fold change
RRIRYRPPRLPRPRPRPVLKPRP | -0.122
RRIRLRPPRLPRPRPRPMNVPRP | -0.839
RRIRGRPPRLPRPRPRPRFGPRP | 0.662
RRIRSRPPRLPRPRPRPIYPPRP | -0.766
RRIRMRPPRLPRPRPRPLLHPRP | 0.228
RRIRCRPPRLPRPRPRPWWRPRP | 0.157
RRIRGRPPRLPRPRPRPGQFPRP | -0.00612
RRIRKRPPRLPRPRPRPFMQPRP | -0.0285
RRIRRRPPRLPRPRPRPISWPRP | -0.166
RRIRPRPPRLPRPRPRPGYYPRP | -0.45
RRIRRRPPRLPRPRPRPDIKPRP | -0.374
RRIRQRPPRLPRPRPRPNSQPRP | 0.229
RRIRTRPPRLPRPRPRPTYCPRP | -0.379
RRIRGRPPRLPRPRPRPSTVPRP | 0.164
RRIRGRPPRLPRPRPRPMWVPRP | 0.168
RRIRLRPPRLPRPRPRPRPTPRP | 0.484
RRIRGRPPRLPRPRPRPMSEPRP | 0.286
RRIRGRPPRLPRPRPRPTVFPRP | 0.993
RRIRFRPPRLPRPRPRPVHNPRP | -0.104
RRIRRRPPRLPRPRPRPLFGPRP | 0.649
RRIRWRPPRLPRPRPRPQDCPRP | -0.014
RRIRYRPPRLPRPRPRPDNIPRP | 0.0653
RRIRKRPPRLPRPRPRPGVKPRP | 0.0127
RRIRPRPPRLPRPRPRPPHDPRP | 0.572
RRIRLRPPRLPRPRPRPDEMPRP | 0.123

Sequence | shrunken log2 fold change
RRIRSRPPRLPRPRPRPNEDPRP | -0.0395
RRIRSRPPRLPRPRPRPKQCPRP | 0.14
RRIRVRPPRLPRPRPRPVCEPRP | 0.206
RRIRNRPPRLPRPRPRPQSGPRP | 0.0495
RRIRCRPPRLPRPRPRPWDKPRP | -0.0809
RRIRIRPPRLPRPRPRPIAVPRP | -0.0939
RRIRKRPPRLPRPRPRPDVLPRP | 0.0156
RRIRCRPPRLPRPRPRPYVVPRP | 0.0333
RRIRLRPPRLPRPRPRPQQYPRP | -0.277
RRIRCRPPRLPRPRPRPHMIPRP | -0.0573
RRIRARPPRLPRPRPRPDIMPRP | 0.0619
RRIRCRPPRLPRPRPRPRHPPRP | 0.11
RRIRERPPRLPRPRPRPYCVPRP | -0.165
RRIRFRPPRLPRPRPRPFNRPRP | 0.0118
RRIRERPPRLPRPRPRPFDVPRP | -0.0685
RRIRGRPPRLPRPRPRPKSAPRP | 0.781
RRIRHRPPRLPRPRPRPGPDPRP | -0.227
RRIRTRPPRLPRPRPRPACYPRP | -0.0845
RRIRPRPPRLPRPRPRPIRFPRP | -0.119
RRIRYRPPRLPRPRPRPQMGPRP | 0.0669
RRIRFRPPRLPRPRPRPAAGPRP | 0.333
RRIRFRPPRLPRPRPRPRALPRP | 0.148
RRIRHRPPRLPRPRPRPAYSPRP | -0.000852
RRIRSRPPRLPRPRPRPHRMPRP | -0.697
RRIRARPPRLPRPRPRPIQRPRP | 0.112

Sequence | shrunken log2 fold change
RRIRERPPRLPRPRPRPADPPRP | -0.35
RRIRCRPPRLPRPRPRPDEPPRP | 0.189
RRIRTRPPRLPRPRPRPAFPPRP | 0.0262
RRIRHRPPRLPRPRPRPGYMPRP | -0.49
RRIRRRPPRLPRPRPRPCCPPRP | 0.467
RRIRMRPPRLPRPRPRPCDFPRP | -0.121
RRIRFRPPRLPRPRPRPWWCPRP | -0.0371
RRIRDRPPRLPRPRPRPERMPRP | 0.216
RRIRRRPPRLPRPRPRPLHQPRP | 0.32
RRIRPRPPRLPRPRPRPCRYPRP | 0.0858
RRIRTRPPRLPRPRPRPLQEPRP | 0.0814
RRIRHRPPRLPRPRPRPSTCPRP | -0.0299
RRIRLRPPRLPRPRPRPMCDPRP | -0.481
RRIRCRPPRLPRPRPRPRVHPRP | -0.152
RRIRWRPPRLPRPRPRPMFHPRP | -0.271
RRIRVRPPRLPRPRPRPPNMPRP | -0.316
RRIRYRPPRLPRPRPRPEWMPRP | -0.758
RRIRSRPPRLPRPRPRPNTNPRP | -0.0164
RRIRGRPPRLPRPRPRPVWHPRP | 0.228
RRIRCRPPRLPRPRPRPVTEPRP | -0.127
RRIRVRPPRLPRPRPRPGVSPRP | -0.141
RRIRVRPPRLPRPRPRPADVPRP | 0.000571
RRIRDRPPRLPRPRPRPHDKPRP | 0.0278
RRIRARPPRLPRPRPRPCRFPRP | 0.0212
RRIRGRPPRLPRPRPRPRMKPRP | 0.426

Sequence | shrunken log2 fold change
RRIRLRPPRLPRPRPRPPSWPRP | 0.0349
RRIRARPPRLPRPRPRPLVEPRP | 0.666
RRIRGRPPRLPRPRPRPGHAPRP | 0.801
RRIRNRPPRLPRPRPRPFHCPRP | -0.536
RRIRNRPPRLPRPRPRPNIPPRP | -0.24
RRIRRRPPRLPRPRPRPRDQPRP | 0.341
RRIRERPPRLPRPRPRPEKRPRP | -0.0657
RRIRTRPPRLPRPRPRPYVMPRP | -1.53
RRIRRRPPRLPRPRPRPYDIPRP | -0.249
RRIRRRPPRLPRPRPRPIYYPRP | -0.192
RRIRERPPRLPRPRPRPKGVPRP | 0.723
RRIRNRPPRLPRPRPRPTDPPRP | 0.162
RRIRFRPPRLPRPRPRPFMVPRP | -0.654
RRIRQRPPRLPRPRPRPPVTPRP | 0.199
RRIRCRPPRLPRPRPRPRIFPRP | -0.16
RRIRPRPPRLPRPRPRPDEIPRP | -0.144
RRIRTRPPRLPRPRPRPISEPRP | 0.00252
RRIRSRPPRLPRPRPRPVHRPRP | -0.0285
RRIRDRPPRLPRPRPRPMCTPRP | -0.0135
RRIRMRPPRLPRPRPRPTAYPRP | 0.513
RRIRTRPPRLPRPRPRPLIVPRP | -0.438
RRIRSRPPRLPRPRPRPSGHPRP | -0.433
RRIRNRPPRLPRPRPRPRPRPRP | 0.586
RRIRERPPRLPRPRPRPTETPRP | -0.00327
RRIRMRPPRLPRPRPRPKESPRP | 0.939
